The first data set addresses CsrA-H6 (Salmonella Typhimurium / Escherichia coli (sequences stated identical)) (UniProt P69913). Description: EMSA. The settings on record: RNA EMSA: 10 mM Tris-HCl pH 7.5, 10 mM MgCl2, 100 mM KCl, 200 ng/uL yeast RNA, 0.2 mg/mL BSA, 7.5% glycerol, 20 mM DTT, 37 C 30 min; DNA EMSA: 10 mM Tris pH ….
Chain of CsrA-H6 (Salmonella Typhimurium / Escherichia coli (sequences stated identical)) (UniProt P69913) (P69913 whole entry): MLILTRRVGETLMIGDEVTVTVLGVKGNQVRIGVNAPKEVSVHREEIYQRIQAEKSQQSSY
“GGGACAAAAAAUUGCCACGAUGACGGCAGUUUCAGUGGAGACGGUGAGCAAUGAAUAAAGAACGCAUUAUUCAGGAAUUUGUGCCGGGCAAACAGGUC [eutS RNA (-47 to +48)]” displayed a Kd of 5.7 nM. “GGGACUUUUUAUCAGGGCCAGGAUAAUGGUAAUAAAAAGUGAAUGUAAAUAAUGUGUUUUGUUUAUAACAAUAAAUUAACUGAGGGGUUUUAUCAUG [pocR RNA (-91 to +3)]” returned a Kd of 7.4 nM.

Substance “GGGUUCUUAUAGUCCCAACUAUCGGAACACUCCAUGCGAGGUCUUUAUGCAACAAGAAGCACUAGGAAUGGUAGAAACCAAAGG [pduA RNA (-44 to +38)]” returned a Kd of 31 nM.

The subject of the next data set is CsrA-H6 (Salmonella Typhimurium / Escherichia coli (sequences stated identical)). Description: EMSA. To be noted: 10 mM MgCl2; yeast RNA 200 ng/uL; apparent Kd; RNA EMSA: 10 mM Tris-HCl pH 7.5, 10 mM MgCl2, 100 mM KCl, 200 ng/uL yeast RNA, 0.2 mg/mL BSA, 7.5% glycerol, 20 mM DTT, 37 C 30 min; DNA EMSA: 10 mM Tris pH ….
On to eutS RNA (-47 to +48), for which the Kd is 5.7 nM. On the same count and under the same terms, next, pduA RNA (-44 to +38): 31 nM; pocR RNA (-91 to +3): 7.4 nM.
